In one experiment the target is T1, TR4-Fc fusion protein (human, UniProt O00220 109-240).
T1 construct: also called TR4:Fc receptor; not shown: Fc region
T1 chain: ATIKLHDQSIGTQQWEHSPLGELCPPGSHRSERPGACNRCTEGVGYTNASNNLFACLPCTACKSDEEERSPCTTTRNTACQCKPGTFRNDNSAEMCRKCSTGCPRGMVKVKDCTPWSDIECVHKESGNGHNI
Kind of experiment: SPR (BIAcore 2000), TR4:Fc amine-coupled on CM5 chip, IgG1 as analyte 0.75-65 nM, TR2:Fc control cell, double reference subtraction, 1:1 Langmuir fit, 25 C. As for the experimental part:
The optimal pH for this coupling was analyzed using preconcentration experiments ranging from pH 4-7 and was determined to be pH 4.0 for both the TR4 and the TR2 receptor. Amine coupling was used to covalently bind each receptor (fc) to the dextran matrix on the CM5 sensor chip. The immobilization experiment was performed using the manual injection mode. The entire immobilization experiment was performed at 5 μL/min. A 3-minute injection of EDC/NHS (1:1) was applied to each flow cell to active esters. A target level of ˜200RU was set as the goal for all each flow cell. Fc-fusion receptors, TR4 and TR2 at 5 μg/mL, were immobilized onto individual flow cells of a sensor chip. The amount applied varied from 8-14 μL. A 3-minute ethanolamine injection completed the immobilization experiment by inactivating the esters.
The kinetics cycles were performed as follows: The flow rate for the entire cycle was 25 μL/minute with the flow path including both the control (TR2) and experimental (TR4) flow cell at all times. A 1-minute buffer injection was applied to stabilize the baseline. The purified antibody (IgG1 antibody comprising the VH and VL domains of each of the T1014A04, T1014G03, T1014F08, and T14G04 scFvs) was diluted from 10 μg/mL (65 nM) to 0.115 μg/mL (0.75 nM) in running buffer and tested in duplicate. Each concentration was in contact with the control (TR2) and the experimental (TR4) flow cell during a 4-minute association and a 10-minute dissociation phase. Regeneration was performed using 25 mM NaOH from 5-12 μL depending on the sample concentration.
A double-reference subtraction was performed, which refers to the control flow cell subtraction for every cycle, in addition to a buffer cycle subtraction. The 1:1 Langmuir model was used for all evaluation fitting.

For the next experiment, the target named is T2, TR7 (human, UniProt O14763 52-184).
T2 construct: The construct coated in the specificity phage ELISA is not described; also called TRAIL-R2; DR5
In words: specificity phage ELISA, antigen coated at 1 ug/ml, anti-M13-HRP detection. As for the experimental part:
(§1) Flexible 96-well plates (Falcon) were coated overnight at 4° C. with each antigen (1 μg/ml). All antigens were coated in PBS. After coating, the solutions were removed from the wells, and the plates were blocked for 1 hour at room temperature in MPBS. The plates were washed 3 times with PBS and then 50 μl of pre-blocked phage was added to each well. The plates were incubated at room temperature for 1 hour and then washed with 3 changes of PBST followed by 3 changes of PBS.
(§2) To each well, 50 μl of an anti-M13-HRP conjugate (Pharmacia) at a 1 in 5000 dilution in MPBS was added and the plates incubated at room temperature for 1 hour. Each plate was washed three times with PBST followed by three times with PBS.
(§3) Fifty μl of TMB substrate was then added to each well, and incubated at room temperature for 30 minutes or until colour development. The reaction was stopped by the addition of 25 μl of 0.5 M H₂SO₄. The signal generated was measured by reading the absorbance at 450 nm (A₄₅₀) using a microtitre plate reader (Bio-Rad 3550).

The target in another experiment is BLyS (human, UniProt Q9Y275 134-285). Described as above. As for the experimental part: as §1, §2, §3
In the next experiment the target is T3, TR10 (human, UniProt Q9UBN6 56-211, limits assumed).
T3 construct: The construct coated in the specificity phage ELISA is not described; also called TRAIL-R4; DcR2
T3 sequence: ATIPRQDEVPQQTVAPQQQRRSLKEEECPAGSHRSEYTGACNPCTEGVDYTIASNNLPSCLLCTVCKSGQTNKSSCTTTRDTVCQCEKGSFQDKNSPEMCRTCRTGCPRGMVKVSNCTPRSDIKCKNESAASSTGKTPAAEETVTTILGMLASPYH
The experiment is described as above. As for the experimental part:
as §1, §2, §3

T2 sequence (O14763 52-184 limits assumed): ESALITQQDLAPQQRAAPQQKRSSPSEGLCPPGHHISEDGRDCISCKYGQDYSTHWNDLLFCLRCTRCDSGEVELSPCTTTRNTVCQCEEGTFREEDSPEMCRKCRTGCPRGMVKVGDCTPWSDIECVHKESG
Chain of BLyS (Q9Y275 134-285 limits assumed): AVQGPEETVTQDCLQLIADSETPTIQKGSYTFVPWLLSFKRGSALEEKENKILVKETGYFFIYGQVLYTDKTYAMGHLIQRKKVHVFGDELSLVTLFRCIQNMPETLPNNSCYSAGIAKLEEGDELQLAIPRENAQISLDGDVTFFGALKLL

B1: IgG1 antibody comprising the VH and VL domains of the T1014A04 scFv (antibody, V domains shown)
VH: EVQLVQSGADVKRPGASVKVSCKISGDSFNAYFIHWVRQAPGQGLEWMGWFNPDSGTADSAQKFHGRVTMTRDTSSSTAFLELSRLRSDDTAVYYCVRQHRGNTFAPWGRGTMVTVSS
VL: QSVLTQPPSASGSPGQSVTISCTGTTSDVGGYNYVSWYQQHPGKAPKLMIYGVNQRPSGVPDRFSGSKSGNTASLTVSGLQAEDEADYYCSSYAGSNNWVFGGGTKLTVLG
notes: Whole IgG1; also called IgG1 format of T1014A04
The molecule B1 showed a Kd in the experiment with TR4-Fc fusion protein of 0.468 nM.

B2: IgG1 antibody comprising the VH and VL domains of the T1014G04 scFv (antibody, V domains shown)
VH: EVQLVQSGADVKRPGASVKVSCKISGDSFTAYFIHWVRQAPGQGLEWMGWFNPDSGTADSAQKFHGRVTMTRDTSSSTAFLELSRLRSDDTAVYYCVRQHRGNTFAPWGRGTLVTVSS
VL: QPVLTQPPSASGSPGQSVTISCTGTSSDVGSYEYVSWYQQHPGKAPRLMISEVNKRPSGVPNRFSGSKSGNTASLTVSGLQADDEADYYCSSYAGSNNWVFGGGTKVTVLG
notes: Whole IgG1; also called T14G04
For B2, the Kd with TR4-Fc fusion protein turned out to be 0.194 nM.

B3: scFv T1014A04 (scFv)
scFv: EVQLVQSGADVKRPGASVKVSCKISGDSFNAYFIHWVRQAPGQGLEWMGWFNPDSGTADSAQKFHGRVTMTRDTSSSTAFLELSRLRSDDTAVYYCVRQHRGNTFAPWGRGTMVTVSSGGGGSGGGGSGGGGSAQSVLTQPPSASGSPGQSVTISCTGTTSDVGGYNYVSWYQQHPGKAPKLMIYGVNQRPSGVPDRFSGSKSGNTASLTVSGLQAEDEADYYCSSYAGSNNWVFGGGTKLTVLG
With B3, the binding result with TR7, with BLyS and with TR10 was “no binding” throughout.

B4: IgG1 antibody comprising the VH and VL domains of the T1014G03 scFv (antibody, V domains shown)
VH: EVQLVQSGAEVKMPGASVKLSCRVSGDTFTAYFIHWVRQAPGQGLEWMGWFNPISGTAGSAEKFRGRVAMTRDTSISTAYMELNRLTFDDTAVYYCARQHRGNTFDPWGQGTLVTVSS
VL: QSALTQPASVSGSPGQSITISCTGTSSDIGAYKYVSWYQQHPGKAPKLVIYEVSNRPSGVSSRFSGSKSGQTASLTISGLQADDEADYYCNSYQGYNTWVFGGGTKVTVLG
notes: Whole IgG1
In the experiment with TR4-Fc fusion protein, B4 returned a dissociation constant (Kd) of 0.554 nM.

B5: scFv T1014F08 (scFv)
scFv: EVQLVQSGAEVKKPGASVKLSCRVSGDTFTAYFIHWVRQAPGQGPEWMGWFNPISGTAGSAARFRGRVAMTRDTSISTAYMELNRLTFDDTAVYYCARQHRGNTFDPWGKGTLVTVSSGGGGSGGGGSGGGGSALPVLTQPPSASGSPGQSVTISCTGTSSDVGGYKYVSWYQQHPGKAPKLMIYEVSMRPSGVPDRFSGSKSGNTASLTVSGLQAEDEADYYCASYAGSNNWVFGGGTKLTVLG
With B5, the binding result with TR7, in the experiment with BLyS and with TR10 was “no binding” in each case.

B6: scFv T1014G03 (scFv)
scFv: EVQLVQSGAEVKMPGASVKLSCRVSGDTFTAYFIHWVRQAPGQGLEWMGWFNPISGTAGSAEKFRGRVAMTRDTSISTAYMELNRLTFDDTAVYYCARQHRGNTFDPWGQGTLVTVSSGGGGSGGGGSGGGGSAQSALTQPASVSGSPGQSITISCTGTSSDIGAYKYVSWYQQHPGKAPKLVIYEVSNRPSGVSSRFSGSKSGQTASLTISGLQADDEADYYCNSYQGYNTWVFGGGTKVTVLG
With B6, the binding result with TR7, with BLyS and with TR10 was “no binding” in each case.

B7: scFv T1014G04 (scFv)
scFv: EVQLVQSGADVKRPGASVKVSCKISGDSFTAYFIHWVRQAPGQGLEWMGWFNPDSGTADSAQKFHGRVTMTRDTSSSTAFLELSRLRSDDTAVYYCVRQHRGNTFAPWGRGTLVTVSSGGGGSGGGGSGGGGSAQPVLTQPPSASGSPGQSVTISCTGTSSDVGSYEYVSWYQQHPGKAPRLMISEVNKRPSGVPNRFSGSKSGNTASLTVSGLQADDEADYYCSSYAGSNNWVFGGGTKVTVLG
For the molecule B7, the binding result in the experiment with TR7, with BLyS and with TR10 was “no binding” in each case.

B8: scFv T1014B11 (scFv)
scFv: EVQLVQSGAEVKKPGASVKVSCKISGDSFTAYFIHWLRQAPGEGLEWMGWFNPISGTAGSPQKFHGRVAMTRDTSISTAYMELTRLASDDTAIYYCARQHHSNTFDPWGQGTLVTVSSGGGGSGGGGSGGGGSAQSALTQPASVSGSPGQSITISCTGTNSDVGGYNYVSWYQQHPGKAPKLMIYEVNNRPSGVSNRFSGSKSGNTASLTISGLQADDEADYYCSSYTTSNTWVFGGGTKLTVLG
Take B8: the binding result in the experiment with TR7, with BLyS and in the experiment with TR10 was “no binding” each time.
